How the values were obtained:
[1] = system: T1, XreR1 (Photorhabdus luminescens DJC), ORF:d6b45183; experiment: SPR; conditions: SPR (Biacore 3000, SA chip), proteins in dialysis buffer: 50 mM Tris/HCl pH 7.5, 10% glycerol, 500 mM NaCl, 2 mM beta-mercaptoethanol; 25 C; 30 ul/min; 1:1 …
T1 sequence: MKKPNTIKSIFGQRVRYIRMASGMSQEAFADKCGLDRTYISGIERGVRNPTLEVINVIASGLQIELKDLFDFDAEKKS

[2] = system: T2, XreR2 (Photorhabdus luminescens DJC), ORF:b2ab5127; experiment: SPR; conditions: SPR (Biacore 3000, SA chip), proteins in dialysis buffer: 50 mM Tris/HCl pH 7.5, 10% glycerol, 500 mM NaCl, 2 mM beta-mercaptoethanol; 25 C; 30 ul/min; 1:1 …
T2 sequence: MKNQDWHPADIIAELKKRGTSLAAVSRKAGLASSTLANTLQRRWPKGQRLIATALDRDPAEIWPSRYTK

[3] = system: T1, XreR1 (Photorhabdus luminescens DJC), ORF:d6b45183; experiment: MST; conditions: SPR (Biacore 3000, SA chip), proteins in dialysis buffer: 50 mM Tris/HCl pH 7.5, 10% glycerol, 500 mM NaCl, 2 mM beta-mercaptoethanol; 25 C; 30 ul/min; 1:1 …
[4] = system: T2, XreR2 (Photorhabdus luminescens DJC), ORF:b2ab5127; experiment: MST; conditions: SPR (Biacore 3000, SA chip), proteins in dialysis buffer: 50 mM Tris/HCl pH 7.5, 10% glycerol, 500 mM NaCl, 2 mM beta-mercaptoethanol; 25 C; 30 ul/min; 1:1 …
[5] = system: XreR1 (Photorhabdus luminescens DJC); experiment: SPR; conditions: SPR (Biacore 3000, SA chip), proteins in dialysis buffer: 50 mM Tris/HCl pH 7.5, 10% glycerol, 500 mM NaCl, 2 mM beta-mercaptoethanol, 25 C, 30 ul/min, 1:1 …

Substance: GGGTGCCAGTCTTGATTTTTCATTAATTAATCCTCCGTGTTACGGATAACTTTGATATGAAAAGGTAAGTCGTTACATAGTAGACTATAAGTCACATATGATAACATAACTTACCATAAAAAGTGACTCATAGTCCGTGGTCTGATAAGTAACATCATTCGATACTTATCAG (double strand) [PxreR2]
- Kd [1]: 300 pM
- binding [2]: binds
- binding [3]: binds
- binding [4]: binds

Substance: PxreR2
- Kd ([5]; ka printed 2.8E+05 1/Ms, kd 8.9E-4 1/s (ratio inconsistent with the printed KD)): 300 pM

Substance: GTTTCATAGCACACCTCAGAAACACACTTAAAATGAACATGAGGAAATGGATTGCGAGCAGGAAAAGATAAATGCAAACAGCTATAAGTAATCATTACTCTTACCGAATGATATAAAGTAGATTGGAGCAGCTTATCTCATTGATAAACTACTCCACTTTAATTTACAGCCAC (double strand) [PpTAS]
- binding [1]: no binding
- binding [2]: binds
- binding [4]: binds

Substance: PxreR1
- Kd ([5]; ka 4.5E+06 1/Ms, kd 2.9E-3 1/s): 600 pM

— PMC7905540
